Laboratory results: patent publication US20220049017A1 (KYMAB, published 2022)

How the values were obtained:
human PCSK9 reference [1] = target: T1, human PCSK9 reference (human, UniProt Q8NBP7 31-692); assay: ProteOn SPR, captured antibody, pH 5.8; KD cannot be accurately determined;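 as to kon: antibodies captured on a GLC chip coated with anti-human Fc, rate constants from a 1:1 Langmuir fit of the sensorgrams, Kd derived from the fitted rates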
Method: (§1) The SPR runs were performed using a GLC chip (Bio-Rad) immobilised with anti-human Fc antibodies. The analyte human antibodies were captured on the chip surface at 2 ug/ml. […] The chip surface was regenerated using two injections of 10 mM Glycine pH 1.5 for 160 seconds at 30 μl/min. The sensorgrams were then fitted with a 1:1 model (Langmuir kinetic model) where ka and kd are fitted and KD was calculated by the ProteOn software.

[2] = target: T2, human PCSK9 D374Y gain-of-function mutant (human, UniProt Q8NBP7 31-692); assay: as above
T2 construct: It was AF647-labelled in the HepG2 cell-based assay and unlabelled in SPR; also called Human PCSK9 GOF; hPCSK9 GOF
Method: as §1

human PCSK9 variant a [3] = target: T3, human PCSK9 variant a (human, UniProt Q8NBP7 31-692); assay: as above
T3 construct: also called Human PCSK9 var A; hPCSK9a
Method: as §1

human PCSK9 variant b [4] = target: T4, human PCSK9 variant b (human, UniProt Q8NBP7 31-692); assay: as above
T4 construct: also called Human PCSK9 var B; hPCSK9b
Method: as §1

human PCSK9 reference [5] = target: T1, human PCSK9 reference; assay: ProteOn SPR, captured antibody, pH 5.8;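 also: antibodies captured on a GLC chip coated with anti-human Fc, rate constants from a 1:1 Langmuir fit of the sensorgrams, Kd derived from the fitted rates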
Method: as §1

[6] = target: T2, human PCSK9 D374Y gain-of-function …; assay: ProteOn SPR, captured antibody, pH 5.8;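 also: antibodies captured on a GLC chip coated with anti-human Fc, rate constants from a 1:1 Langmuir fit of the sensorgrams, Kd derived from the fitted rates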
Method: as §1

human PCSK9 variant a [7] = target: T3, human PCSK9 variant a; assay: ProteOn SPR, captured antibody, pH 5.8;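 also: antibodies captured on a GLC chip coated with anti-human Fc, rate constants from a 1:1 Langmuir fit of the sensorgrams, Kd derived from the fitted rates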
Method: as §1

human PCSK9 variant b [8] = target: T4, human PCSK9 variant b; assay: ProteOn SPR, captured antibody, pH 5.8
Method: as §1

mouse PCSK9 [9] = target: T5, mouse PCSK9 (mouse, UniProt Q80W65 35-694, limits assumed); assay: ProteOn SPR, captured antibody, pH 5.8
T5 construct: also called mPCSK9; PCSK9 mouse
T5 sequence (Q80W65 35-694 limits assumed): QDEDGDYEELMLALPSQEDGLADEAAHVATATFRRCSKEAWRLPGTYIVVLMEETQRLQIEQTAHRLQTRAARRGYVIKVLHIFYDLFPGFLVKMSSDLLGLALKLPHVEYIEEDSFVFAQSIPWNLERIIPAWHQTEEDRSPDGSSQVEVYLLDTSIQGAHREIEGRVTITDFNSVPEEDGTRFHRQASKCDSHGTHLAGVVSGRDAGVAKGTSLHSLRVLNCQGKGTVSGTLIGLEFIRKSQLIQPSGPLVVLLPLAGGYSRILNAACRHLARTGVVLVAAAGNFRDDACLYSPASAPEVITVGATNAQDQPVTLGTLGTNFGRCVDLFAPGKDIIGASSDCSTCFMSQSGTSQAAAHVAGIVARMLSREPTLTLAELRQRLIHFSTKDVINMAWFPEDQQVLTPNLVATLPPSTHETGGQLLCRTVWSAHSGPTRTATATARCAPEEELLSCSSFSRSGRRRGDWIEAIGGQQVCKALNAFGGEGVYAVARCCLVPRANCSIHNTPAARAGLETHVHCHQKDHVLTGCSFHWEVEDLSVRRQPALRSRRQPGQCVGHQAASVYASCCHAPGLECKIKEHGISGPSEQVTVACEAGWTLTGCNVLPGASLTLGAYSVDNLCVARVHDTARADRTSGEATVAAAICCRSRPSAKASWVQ
Method: as §1

cynomolgus monkey PCSK9 [10] = target: T6, cynomolgus monkey PCSK9 (cynomolgus monkey, UniProt A8T662 31-692 (Macaca nemestrina entry), limits assumed); assay: ProteOn SPR, captured antibody, pH 5.8
T6 construct: also called Cyno PCSK9; cynoPCSK9
T6 sequence (A8T662 31-692 limits assumed): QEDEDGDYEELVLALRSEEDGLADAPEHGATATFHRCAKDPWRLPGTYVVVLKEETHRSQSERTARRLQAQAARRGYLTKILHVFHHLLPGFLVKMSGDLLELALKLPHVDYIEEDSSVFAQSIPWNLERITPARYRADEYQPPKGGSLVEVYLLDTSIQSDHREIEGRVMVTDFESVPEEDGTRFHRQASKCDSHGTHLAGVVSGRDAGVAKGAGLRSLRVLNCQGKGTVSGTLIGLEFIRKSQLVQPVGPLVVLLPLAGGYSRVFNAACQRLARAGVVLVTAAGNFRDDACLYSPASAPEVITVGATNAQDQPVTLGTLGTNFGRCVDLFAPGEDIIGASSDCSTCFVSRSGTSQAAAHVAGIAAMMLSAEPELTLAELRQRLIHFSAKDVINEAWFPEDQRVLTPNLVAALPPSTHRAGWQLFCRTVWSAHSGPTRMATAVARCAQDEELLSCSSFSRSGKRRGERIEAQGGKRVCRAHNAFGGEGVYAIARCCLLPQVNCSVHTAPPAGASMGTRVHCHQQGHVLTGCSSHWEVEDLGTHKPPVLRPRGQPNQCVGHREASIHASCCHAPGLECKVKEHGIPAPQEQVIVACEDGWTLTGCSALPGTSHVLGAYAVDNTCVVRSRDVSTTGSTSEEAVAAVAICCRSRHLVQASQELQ
Method: as §1

human PCSK9 reference [11] = target: T1, human PCSK9 reference; assay: ProteOn SPR, captured antibody, pH 7.6;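 also: antibodies captured via anti-human Fc on a GLC sensor chip, PCSK9 binding sensorgrams fitted to a 1:1 Langmuir model giving on and off rates, with KD derived from them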
Method: as §1

[12] = target: T2, human PCSK9 D374Y gain-of-function …; assay: ProteOn SPR, captured antibody, pH 7.6;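 also: antibodies captured via anti-human Fc on a GLC sensor chip, PCSK9 binding sensorgrams fitted to a 1:1 Langmuir model giving on and off rates, with KD derived from them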
Method: as §1

human PCSK9 variant a [13] = target: T3, human PCSK9 variant a; assay: ProteOn SPR, captured antibody, pH 7.6;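 also: antibodies captured via anti-human Fc on a GLC sensor chip, PCSK9 binding sensorgrams fitted to a 1:1 Langmuir model giving on and off rates, with KD derived from them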
Method: as §1

human PCSK9 variant b [14] = target: T4, human PCSK9 variant b; assay: ProteOn SPR, captured antibody, pH 7.6;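 also: antibodies captured via anti-human Fc on a GLC sensor chip, PCSK9 binding sensorgrams fitted to a 1:1 Langmuir model giving on and off rates, with KD derived from them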
Method: as §1

mouse PCSK9 [15] = target: T5, mouse PCSK9; assay: ProteOn SPR, captured antibody, pH 7.6
Method: as §1

cynomolgus monkey PCSK9 [16] = target: T6, cynomolgus monkey PCSK9; assay: ProteOn SPR, captured antibody, pH 7.6
Method: as §1

human PCSK9 reference [17] = target: T1, human PCSK9 reference; assay: ProteOn SPR, captured antibody, pH 5.8; value is the lower detection limit
Method: as §1

[18] = target: T2, human PCSK9 D374Y gain-of-function …; assay: as above
Method: as §1

human PCSK9 variant b [19] = target: T4, human PCSK9 variant b; assay: as above
Method: as §1

human PCSK9 variant a [20] = target: T3, human PCSK9 variant a; assay: ProteOn SPR, captured antibody, pH 5.8; value is the lower detection limit; pH 5.8
Method: as §1

B1: CL-148489 (antibody, V domains shown)
VH: EVQLVESGGGLVQPGRSLRLSCTASGFTFADYVMHWVRQTPGKGLEWVSGISWNSYSINYADSVKGRFTISRDNAQNSLYLQMNSLRAEDTALYFCAKDITYDLLTGYNYNYGLDVWGQGTTVTVSS
VL: DIVMTQTPLSLSVTPGQPASISCRSSQSLLHSDGKTYLYWYLQKPGQPPQLLIYEVSNRFSGVPDRFSGSGSGTDFTLKISRVEAEDVGLYYCMQSIQLPLTFGGGTKVEIK
notes: Human antibody with a kappa light chain
Kd (human PCSK9 reference [1]): < 0.00667 nM | Kd [2]: < 0.0073 nM | Kd (human PCSK9 variant a [3]): < 0.008 nM | Kd (human PCSK9 variant b [4]): < 0.00649 nM | kon (human PCSK9 reference [5]): 1.5e+06 M⁻¹ s⁻¹ | kon [6]: 1.37e+06 M⁻¹ s⁻¹ | kon (human PCSK9 variant a [7]): 1.25e+06 M⁻¹ s⁻¹ | kon (human PCSK9 variant b [8]): 1.54e+06 M⁻¹ s⁻¹ | Kd (mouse PCSK9 [9]): 0.46 nM | koff (mouse PCSK9 [9]): 0.000632 s⁻¹ | kon (mouse PCSK9 [9]): 1.38e+06 M⁻¹ s⁻¹ | Kd (cynomolgus monkey PCSK9 [10]): 0.0924 nM | koff (cynomolgus monkey PCSK9 [10]): 0.000121 s⁻¹ | kon (cynomolgus monkey PCSK9 [10]): 1.31e+06 M⁻¹ s⁻¹ | Kd (human PCSK9 reference [11]): 0.176 nM | koff (human PCSK9 reference [11]): 0.000163 s⁻¹ | kon (human PCSK9 reference [11]): 924000 M⁻¹ s⁻¹ | Kd [12]: 0.136 nM | koff [12]: 0.000129 s⁻¹ | kon [12]: 947000 M⁻¹ s⁻¹ | Kd (human PCSK9 variant a [13]): 0.175 nM | koff (human PCSK9 variant a [13]): 0.000157 s⁻¹ | kon (human PCSK9 variant a [13]): 894000 M⁻¹ s⁻¹ | Kd (human PCSK9 variant b [14]): 0.193 nM | koff (human PCSK9 variant b [14]): 0.000164 s⁻¹ | kon (human PCSK9 variant b [14]): 848000 M⁻¹ s⁻¹ | Kd (mouse PCSK9 [15]): 2.69 nM | koff (mouse PCSK9 [15]): 0.00192 s⁻¹ | kon (mouse PCSK9 [15]): 714000 M⁻¹ s⁻¹ | Kd (cynomolgus monkey PCSK9 [16]): 0.0506 nM | koff (cynomolgus monkey PCSK9 [16]): 5.73e-05 s⁻¹ | kon (cynomolgus monkey PCSK9 [16]): 1.13e+06 M⁻¹ s⁻¹ | koff (human PCSK9 reference [17]): ≤ 1e-05 s⁻¹ | koff [18]: ≤ 1e-05 s⁻¹ | koff (human PCSK9 variant b [19]): ≤ 1e-05 s⁻¹ | koff (human PCSK9 variant a [20]): ≤ 1e-05 s⁻¹
